Experimental data as given in article PMC10164062 (Cancer discovery, 2023).

Target: the molecule itself
Assay: cross-linking

B1: p53R245W (mouse, DNA binding domain mutant) (natural protein, mouse (endogenous in MEFs), UniProt P02340 1-390, looked up)
chain: MTAMEESQSDISLELPLSQETFSGLWKLLPPEDILPSPHCMDDLLLPQDVEEFFEGPSEALRVSGAPAAQDPVTETPGPVAPAPATPWPLSSFVPSQKTYQGNYGFHLGFLQSGTAKSVMCTYSPPLNKLFCQLAKTCPVQLWVSATPPAGSRVRAMAIYKKSQHMTEVVRRCPHHERCSDGDGLAPPQHLIRVEGNLYPEYLEDRQTFRHSVVVPYEPPEAGSEYTTIHYKYMCNSSCMGGMNWRPILTIITLEDSSGNLLGRDSFEVRVCACPGRDRRTEEENFRKKEVLCPELPPGSAKRALPTCTSASPPQKKKPLDGEYFTLKIRGRKRFEMFRELNEALELKDAHATEESGDSRAHSSYLKTKKGQSTSRHKKTMVKKVGPDSD
  stoichiometry N: 4
